Laboratory results as given in patent US20250388628A1 (Genentech, published 2025).

B1: AAV2 VP3 VLP A593E (other)
chain: MATGSGAPMADNNEGADGVGNSSGNWHCDSTWMGDRVITTSTRTWALPTYNNHLYKQISSQSGASNDNHYFGYSTPWGYFDFNRFHCHFSPRDWQRLINNNWGFRPKRLNFKLFNIQVKEVTQNDGTTTIANNLTSTVQVFTDSEYQLPYVLGSAHQGCLPPFPADVFMVPQYGYLTLNNGSQAVGRSSFYCLEYFPSQMLRTGNNFTFSYTFEDVPFHSSYAHSQSLDRLMNPLIDQYLYYLSRTNTPSGTTTQSRLQFSQAGASDIRDQSRNWLPGPCYRQQRVSKTSADNNNSEYSWTGATKYHLNGRDSLVNPGPAMASHKDDEEKFFPQSGVLIFGKQGSEKTNVDIEKVMITDEEEIRTTNPVATEQYGSVSTNLQRGNRQAATEDVNTQGVLPGMVWQDRDVYLQGPIWAKIPHTDGHFHPSPLMGGFGLKHPPPQILIKNTPVPANPSTTFSAAKFASFITQYSTGQVSVEIEWELQKENSKRWNPEIQYTSNYNKSVNVDFTVDTNGVYSEPRPIGTRYLTRNL
notes: VP3-only VLP
B2: AAV receptor (AAVR) fragment comprising the domains PKD1 and PKD2 (residues V305-V499) (receptor)
chain: VIKELVVSAGESVQITLPKNEVQLNAYVLQEPPKGETYTYDWQLITHPRDYSGEMEGKHSQILKLSKLTPGLYEFKVIVEGQNAHGEGYVNVTVKPEPRKNRPPIAIVSPQFQEISLPTTSTVIDGSQSTDDDKIVQYHWEELKGPLREEKISEDTAILKLSKLVPGNYTFSLTVVDSDGATNSTTANLTVNKAV
B3: AAV2 VP3 VLP T592D (other)
chain: MATGSGAPMADNNEGADGVGNSSGNWHCDSTWMGDRVITTSTRTWALPTYNNHLYKQISSQSGASNDNHYFGYSTPWGYFDFNRFHCHFSPRDWQRLINNNWGFRPKRLNFKLFNIQVKEVTQNDGTTTIANNLTSTVQVFTDSEYQLPYVLGSAHQGCLPPFPADVFMVPQYGYLTLNNGSQAVGRSSFYCLEYFPSQMLRTGNNFTFSYTFEDVPFHSSYAHSQSLDRLMNPLIDQYLYYLSRTNTPSGTTTQSRLQFSQAGASDIRDQSRNWLPGPCYRQQRVSKTSADNNNSEYSWTGATKYHLNGRDSLVNPGPAMASHKDDEEKFFPQSGVLIFGKQGSEKTNVDIEKVMITDEEEIRTTNPVATEQYGSVSTNLQRGNRQAADADVNTQGVLPGMVWQDRDVYLQGPIWAKIPHTDGHFHPSPLMGGFGLKHPPPQILIKNTPVPANPSTTFSAAKFASFITQYSTGQVSVEIEWELQKENSKRWNPEIQYTSNYNKSVNVDFTVDTNGVYSEPRPIGTRYLTRNL
notes: VP3-only VLP

Tests used:
[1] = target: B2; assay: SPR; against wild-type VLP
[2] = target: B2; assay: SPR; captured AAV9 VP3 VLP, AAVR analyte
[3] = target: B2; assay: SPR; affinity against wild-type AAV2 VLP
AAV2 VP3 VLP A593E = target: B1; assay: SPR; captured AAV2 VP3 VLP, AAVR analyte
Wild-type AAV2 VP3 VLP = target: T1, Wild-type AAV2 VP3 VLP (adeno-associated virus serotype 2 (AAV2), UniProt P03135 203-735); assay: SPR; captured AAV2 VP3 VLP, AAVR analyte
T1 construct: VP3-only VLP; also called Wild-type AAV2 VLP (WT); WT

AAV2 VP3 VLP T592D/A593E = target: T2, AAV2 VP3 VLP T592D/A593E (adeno-associated virus serotype 2 (AAV2), UniProt P03135 203-735); assay: SPR; captured AAV2 VP3 VLP, AAVR analyte
T2 construct: VP3-only VLP

AAV2 VP3 VLP T592D = target: B3; assay: SPR; captured AAV2 VP3 VLP, AAVR analyte

| Binder | KD Fold Change [1] | Kd [2] | koff [2] | kon [2] | further results |
| --- | --- | --- | --- | --- | --- |
| AAV9 VP3 VLP A273N, A472H, E500P (other, VP3-only VLP) VP3: MASGGGAPVADNNEGADGVGSSSGNWHCDSQWLGDRVITTSTRTWALPTYNNHLYKQISNSTSGGSSNDNNYFGYSTPWGYFDFNRFHCHFSPRDWQRLINNNWGFRPKRLNFKLFNIQVKEVTDNNGVKTIANNLTSTVQVFTDSDYQLPYVLGSAHEGCLPPFPADVFMIPQYGYLTLNDGSQAVGRSSFYCLEYFPSQMLRTGNNFQFSYEFENVPFHSSYAHSQSLDRLMNPLIDQYLYYLSKTINGSGQNQQTLKFSVAGPSNMHVQGRNYIPGPSYRQQRVSTTVTQNNNSPFAWPGASSWALNGRNSLMNPGPAMASHKEGEDRFFPLSGSLIFGKQGTGRDNVDADKVMITNEEEIKTTNPVATESYGQVATNHQSAQAQAQTGWVQNQGILPGMVWQDRDVYLQGPIWAKIPHTDGNFHPSPLMGGFGMKHPPPQILIKNTPVPADPPTAFNKDKLNSFITQYSTGQVSVEIEWELQKENSKRWNPEIQYTSNYYKSNNVEFAVNTEGVYSEPRPIGTRYLTRNL | 455 fold | 5.14 nM | 0.000236 s⁻¹ | 45900 M⁻¹ s⁻¹ | – |
| AAV9 VP3 VLP I451Y, S454I, E500P, P504I (other, One VP3 subunit is given; in the assay it stood assembled as a VP3-only icosahedral VLP capsid., VP3-only VLP) MASGGGAPVADNNEGADGVGSSSGNWHCDSQWLGDRVITTSTRTWALPTYNNHLYKQISNSTSGGSSNDNAYFGYSTPWGYFDFNRFHCHFSPRDWQRLINNNWGFRPKRLNFKLFNIQVKEVTDNNGVKTIANNLTSTVQVFTDSDYQLPYVLGSAHEGCLPPFPADVFMIPQYGYLTLNDGSQAVGRSSFYCLEYFPSQMLRTGNNFQFSYEFENVPFHSSYAHSQSLDRLMNPLIDQYLYYLSKTYNGIGQNQQTLKFSVAGPSNMAVQGRNYIPGPSYRQQRVSTTVTQNNNSPFAWIGASSWALNGRNSLMNPGPAMASHKEGEDRFFPLSGSLIFGKQGTGRDNVDADKVMITNEEEIKTTNPVATESYGQVATNHQSAQAQAQTGWVQNQGILPGMVWQDRDVYLQGPIWAKIPHTDGNFHPSPLMGGFGMKHPPPQILIKNTPVPADPPTAFNKDKLNSFITQYSTGQVSVEIEWELQKENSKRWNPEIQYTSNYYKSNNVEFAVNTEGVYSEPRPIGTRYLTRNL | 214 fold | – | – | – | – |
| AAV9 VP3 VLP I451Y, S454I, E500P, P504T (other, One VP3 subunit is given; in the assay it stood assembled as a VP3-only icosahedral VLP capsid., VP3-only VLP) MASGGGAPVADNNEGADGVGSSSGNWHCDSQWLGDRVITTSTRTWALPTYNNHLYKQISNSTSGGSSNDNAYFGYSTPWGYFDFNRFHCHFSPRDWQRLINNNWGFRPKRLNFKLFNIQVKEVTDNNGVKTIANNLTSTVQVFTDSDYQLPYVLGSAHEGCLPPFPADVFMIPQYGYLTLNDGSQAVGRSSFYCLEYFPSQMLRTGNNFQFSYEFENVPFHSSYAHSQSLDRLMNPLIDQYLYYLSKTYNGIGQNQQTLKFSVAGPSNMAVQGRNYIPGPSYRQQRVSTTVTQNNNSPFAWTGASSWALNGRNSLMNPGPAMASHKEGEDRFFPLSGSLIFGKQGTGRDNVDADKVMITNEEEIKTTNPVATESYGQVATNHQSAQAQAQTGWVQNQGILPGMVWQDRDVYLQGPIWAKIPHTDGNFHPSPLMGGFGMKHPPPQILIKNTPVPADPPTAFNKDKLNSFITQYSTGQVSVEIEWELQKENSKRWNPEIQYTSNYYKSNNVEFAVNTEGVYSEPRPIGTRYLTRNL | 146 fold | – | – | – | – |
| AAV9 VP3 VLP I451Y, S454I, E500P (other, VP3-only VLP) MASGGGAPVADNNEGADGVGSSSGNWHCDSQWLGDRVITTSTRTWALPTYNNHLYKQISNSTSGGSSNDNAYFGYSTPWGYFDFNRFHCHFSPRDWQRLINNNWGFRPKRLNFKLFNIQVKEVTDNNGVKTIANNLTSTVQVFTDSDYQLPYVLGSAHEGCLPPFPADVFMIPQYGYLTLNDGSQAVGRSSFYCLEYFPSQMLRTGNNFQFSYEFENVPFHSSYAHSQSLDRLMNPLIDQYLYYLSKTYNGIGQNQQTLKFSVAGPSNMAVQGRNYIPGPSYRQQRVSTTVTQNNNSPFAWPGASSWALNGRNSLMNPGPAMASHKEGEDRFFPLSGSLIFGKQGTGRDNVDADKVMITNEEEIKTTNPVATESYGQVATNHQSAQAQAQTGWVQNQGILPGMVWQDRDVYLQGPIWAKIPHTDGNFHPSPLMGGFGMKHPPPQILIKNTPVPADPPTAFNKDKLNSFITQYSTGQVSVEIEWELQKENSKRWNPEIQYTSNYYKSNNVEFAVNTEGVYSEPRPIGTRYLTRNL | 217 fold | – | – | – | – |
| AAV9 VP3 VLP Q387K, A472H, E500P (other, VP3-only VLP) VP3: MASGGGAPVADNNEGADGVGSSSGNWHCDSQWLGDRVITTSTRTWALPTYNNHLYKQISNSTSGGSSNDNAYFGYSTPWGYFDFNRFHCHFSPRDWQRLINNNWGFRPKRLNFKLFNIQVKEVTDNNGVKTIANNLTSTVQVFTDSDYQLPYVLGSAHEGCLPPFPADVFMIPQYGYLTLNDGSKAVGRSSFYCLEYFPSQMLRTGNNFQFSYEFENVPFHSSYAHSQSLDRLMNPLIDQYLYYLSKTINGSGQNQQTLKFSVAGPSNMHVQGRNYIPGPSYRQQRVSTTVTQNNNSPFAWPGASSWALNGRNSLMNPGPAMASHKEGEDRFFPLSGSLIFGKQGTGRDNVDADKVMITNEEEIKTTNPVATESYGQVATNHQSAQAQAQTGWVQNQGILPGMVWQDRDVYLQGPIWAKIPHTDGNFHPSPLMGGFGMKHPPPQILIKNTPVPADPPTAFNKDKLNSFITQYSTGQVSVEIEWELQKENSKRWNPEIQYTSNYYKSNNVEFAVNTEGVYSEPRPIGTRYLTRNL | 3370 fold | 0.694 nM | 0.000338 s⁻¹ | 487000 M⁻¹ s⁻¹ | – |
| AAV9 VP3 VLP A273N, Q387K, A472H, E500P (other, VP3-only VLP) VP3: MASGGGAPVADNNEGADGVGSSSGNWHCDSQWLGDRVITTSTRTWALPTYNNHLYKQISNSTSGGSSNDNNYFGYSTPWGYFDFNRFHCHFSPRDWQRLINNNWGFRPKRLNFKLFNIQVKEVTDNNGVKTIANNLTSTVQVFTDSDYQLPYVLGSAHEGCLPPFPADVFMIPQYGYLTLNDGSKAVGRSSFYCLEYFPSQMLRTGNNFQFSYEFENVPFHSSYAHSQSLDRLMNPLIDQYLYYLSKTINGSGQNQQTLKFSVAGPSNMHVQGRNYIPGPSYRQQRVSTTVTQNNNSPFAWPGASSWALNGRNSLMNPGPAMASHKEGEDRFFPLSGSLIFGKQGTGRDNVDADKVMITNEEEIKTTNPVATESYGQVATNHQSAQAQAQTGWVQNQGILPGMVWQDRDVYLQGPIWAKIPHTDGNFHPSPLMGGFGMKHPPPQILIKNTPVPADPPTAFNKDKLNSFITQYSTGQVSVEIEWELQKENSKRWNPEIQYTSNYYKSNNVEFAVNTEGVYSEPRPIGTRYLTRNL | 5560 fold | 0.421 nM | 3.96e-05 s⁻¹ | 94000 M⁻¹ s⁻¹ | – |
| B1 | – | – | – | – | Fold change vs WT [3]: ~4 fold |
| B2 | – | – | – | – | Kd (AAV2 VP3 VLP A593E): 520 nM; koff (AAV2 VP3 VLP A593E): 0.0111 s⁻¹; kon (AAV2 VP3 VLP A593E): 21600 M⁻¹ s⁻¹; Kd (Wild-type AAV2 VP3 VLP): 2100 nM; koff (Wild-type AAV2 VP3 VLP): 0.0311 s⁻¹; kon (Wild-type AAV2 VP3 VLP): 15100 M⁻¹ s⁻¹; Kd (AAV2 VP3 VLP T592D/A593E): 330 nM; koff (AAV2 VP3 VLP T592D/A593E): 0.00652 s⁻¹; kon (AAV2 VP3 VLP T592D/A593E): 19600 M⁻¹ s⁻¹; Kd (AAV2 VP3 VLP T592D): 420 nM; koff (AAV2 VP3 VLP T592D): 0.00797 s⁻¹; kon (AAV2 VP3 VLP T592D): 19100 M⁻¹ s⁻¹ |
| B3 | – | – | – | – | Fold change vs WT [3]: 5 fold |
